Test results published in patent US20250144179A1, “PEPTIDE HORMONE TO PREVENT OR TREAT VASOSPASM, BRAIN INJURY OR CEREBRAL EDEMA” (UNIVERSITY OF FLORIDA RESEARCH FOUNDATION, INCORPORATED, priority 2022, published 2025).

What was measured:
Format in all cases: in vivo, mouse
occludin = assay: Western blot of occludin in brain after SAH; conditions: wild-type mice, adropin 450 nmol/kg i.p. vs vehicle
Protocol: (§1) Synthetic adropin^34-76 peptide was supplied from Bachem (Bubendorf, Switzerland) and diluted in 0.1% BSA in saline. 0.1% BSA in saline was used as vehicle control for all experiments. Adropin (450 nmol/kg) or an equivalent volume of vehicle was delivered via intraperitoneal injection 15 minutes post-SAH. For experiments ending at 24 hours post-SAH, an identical dose of adropin/vehicle was given again 12 hours later. For experiments ending 7 days post-SAH, adropin/vehicle was given again on days 1, 3 & 5 post-SAH. In the aneurysm rupture model, adropin was given at a dose of 450 nmol/kg starting 3 days before aneurysm induction (elastase injection). Adropin was given every other day until sacrifice
(§2) SAH was modeled using the anterior circulation single autologous blood injection method^25,33 with minor adjustments. Mice were anesthetized with ketamine (100 mg/kg) and xylazine (10 mg/kg) before removing hair from scalp and cleaning with serial betadine—saline washes. The tail was also prepped from the base extending 1 cm distally. Mice were then fixed into a stereotaxic frame and body temperature maintained at 37° C. The scalp was incised along the sagittal suture from bregma to the nasal bone. […]
(§3) At 24 hours or 7 days post-SAH, mice were deeply anesthetized and perfused with 10 mL of ice-cold PBS. […] Samples were centrifuged, supernatant collected, and protein quantified via Bradford assay. […]

ZO-1 = assay: Western blot of ZO-1 in brain after SAH; conditions: wild-type mice, adropin 450 nmol/kg i.p. vs vehicle
Protocol: as §1, §2, §3

[1] = Quantitative serum assays for common markers of liver toxicity

adropin (CHSRSADVDSLSESSPNSSPGPCPEKAPPPQKPSHEGSYLLQP) [Synthetic adropin^34-76 peptide from Bachem]
occludin expression (immunoblot) (occludin): preserved the expression of occludin | ZO-1 expression (immunoblot) (ZO-1): preserved the expression of occludin and ZO-1 | serum concentration of alanine aminotransferase (ALT) ([1]; I.P. injection of adropin): did not cause elevations | serum concentration of aspartate aminotransferase (AST) ([1]; I.P. injection of adropin): did not cause elevations | serum concentration of fasting glucose ([1]; I.P. injection of adropin): did not cause elevations | serum concentration of total bilirubin ([1]; I.P. injection of adropin): did not cause elevations | common markers of liver toxicity ([1]; adropin vs vehicle): adropin had no effect compared to vehicle treatment
